In patent US20240228562A1, “NOVEL LIPOCALIN MUTEINS SPECIFIC FOR CONNECTIVE TISSUE GROWTH FACTOR (CTGF)” (PIERIS PHARMACEUTICALS GMBH, priority 2021, published 2024):
Where a chain is given by its changes, count along the chain named.

T1: Rat CTGF (Rattus norvegicus, UniProt Q9R1E9)
T1 construct: purchased R&D Systems
T1 sequence (Q9R1E9 25-347): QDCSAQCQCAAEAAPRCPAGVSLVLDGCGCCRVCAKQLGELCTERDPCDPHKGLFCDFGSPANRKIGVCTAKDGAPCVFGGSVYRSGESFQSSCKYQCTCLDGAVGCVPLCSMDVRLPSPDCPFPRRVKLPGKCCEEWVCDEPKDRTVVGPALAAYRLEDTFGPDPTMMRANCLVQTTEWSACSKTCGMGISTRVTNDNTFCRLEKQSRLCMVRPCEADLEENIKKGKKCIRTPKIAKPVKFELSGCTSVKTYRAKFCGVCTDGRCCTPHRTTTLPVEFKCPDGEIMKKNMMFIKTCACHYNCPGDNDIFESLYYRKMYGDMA

T2: Murine CTGF (Mus musculus, UniProt P29268)
T2 construct: purchased Abbexa
T2 sequence (P29268 26-348): T1 sequence (Q9R1E9 25-347) with R16H, V148A

B1: SEQ ID NO: 10: optimized CTGF-binding hNGAL lipocalin mutein (protein)
chain: QDSTSDLIPAPPLSKVPLQQNFQDNQFQGKWYVVGLAGNAILREDKQPAKMFATIYELKEDKSYDVTSVRFEAKSCSYTIKTFVPGSQPGEFTAGNIKSAPGQTSTLVRVVSTNYNQHAMVFWKSVAGTRESFNIALYGRTKELTSELKENFIRFSKSLGLPENHIVFPVPIDQCIDG
modifications: lipocalin mutein
B2: SEQ ID NO: 21: optimized CTGF-binding hNGAL lipocalin mutein (protein)
chain: B1 chain with W123F, S125A, A127R, T129A
modifications: lipocalin mutein
B3: SEQ ID NO: 19: optimized CTGF-binding hNGAL lipocalin mutein (protein)
chain: B1 chain with W123H, S125A, A127S, G128Q, T129N, N134V, A136T
modifications: lipocalin mutein
B4: SEQ ID NO: 16: optimized CTGF-binding hNGAL lipocalin mutein (protein)
chain: B1 chain with E44T, S77V, W123F, S125H, A127S, G128Q, T129N, S132F, N134V, A136T
modifications: lipocalin mutein
B5: SEQ ID NO: 28: optimized CTGF-binding hNGAL lipocalin mutein (protein)
chain: QDSTSDLIPAPPLSKVPLQQNFQDNQFQGKWYVVGLAGNYRLREDKDPSKMGATIYELKEDKSYDVTQVQFDDKKCLYVIETFVPGSQPGEFTLGAIKSYPGLTSQLVRVVSTNYNQHAMVFVKKVWPNLEYFQIVLYGRTKELTSELKENFIRFSKSLGLPENHIVFPVPIDQCIDG
modifications: lipocalin mutein
B6: SEQ ID NO: 26: optimized CTGF-binding hNGAL lipocalin mutein (protein)
chain: QDSTSDLIPAPPLSKVPLQQNFQDNQFQGKWYVVGLAGNYRLREDKDPSKMGATIYELKEDKSYDVTQVQFDDKKCLYVIETFVPGSQPGEFTLGNIKVYPTLESQLVRVVSTNYNQHAMVFFKKVYQNREVFWITLYGRTKELTSELKENFIRFSKSLGLPENHIVFPVPIDQCIDG
modifications: lipocalin mutein
B7: SEQ ID NO: 27: optimized CTGF-binding hNGAL lipocalin mutein (protein)
chain: B5 chain with V123L, W127Y, P128G, N129S, L130E, Q134H, V136T
modifications: lipocalin mutein
B8: SEQ ID NO: 32: optimized CTGF-binding hNGAL lipocalin mutein (protein)
chain: QDSTSDLIPAPPLSKVPLQQNFQDNQFQGKWYVVGWAGNVKLREDKQPFKMSATIYELKEDKSYDVTEVVFEQKKCHYIIKTFVPGSQPGEFTLSPISSSPGLVSHLVRVVSTNYNQHAMVFFKKVHQNREFFWITLYGRTKELTSELKENFIRFSKSLGLPENHIVFPVPIDQCIDG
modifications: lipocalin mutein
B9: SEQ ID NO: 8: optimized CTGF-binding hNGAL lipocalin mutein (protein)
chain: QDSTSDLIPAPPLSKVPLQQNFQDNQFQGKWYVVGLAGNYGLRTDKRPSKMFATIYELKEDKSYDVTSVRFEQERCHYTIRTFVPGSQPGEFTSGNIGNYPGSYSTLVRVVSTNYNQHAMVFFKSVIQNREYFAITLYGRTKELTSELKENFIRFSKSLGLPENHIVFPVPIDQCIDG
modifications: lipocalin mutein
B10: SEQ ID NO: 14: optimized CTGF-binding hNGAL lipocalin mutein (protein)
chain: QDSTSDLIPAPPLSKVPLQQNFQDNQFQGKWYVVGLAGNAILREDKYPAKMFATIYELKEDKSYDVTSVRFEAKSCIYTIKTFVPGSQPGEFTRGNIKSAPGQTSTLVRVVSTNYNQHAMVFFKHVSQNREIFVITLYGRTKELTSELKENFIRFSKSLGLPENHIVFPVPIDQCIDG
modifications: lipocalin mutein

molecular target: T1, Rat CTGF; assay: SPR binding kinetics and affinity, rat CTGF; conditions: 25° C., 1:1 binding model
Method: (§1) Surface plasmon resonance (SPR) was used to measure binding kinetics and affinity of the representative lipocalin muteins disclosed herein.
(§2) The binding of exemplary lipocalin muteins to human (Creative Biomart), cynomolgus, rat (R&D Systems) and mouse CTGF (Abbexa) was determined by SPR using a Biacore instrument (Cytiva, formerly GE Healthcare). Some targets were fused to a human IgG1 Fc tag, and captured via the anti-human IgG antibody kit, others were directly immobilized.
(§3) For some measurements, human CTGF with a human IgG1 Fc Tag or rat or murine CTGF without a tag were directly immobilized to a CM5 Chip. The carboxyl groups on the chip were activated using 1-ethyl-3-(3-dimethylaminopropyl)-carbodiimide (EDC) and N-hydroxysuccinimide (NHS). Subsequently, the targets at a concentration of 3-5 μg/mL in 10 mM sodium acetate (pH) 4.5 were applied at a flow rate of 10 μL/min until an immobilization level of 300-1100 resonance units was achieved. Residual non-reacted NHS-esters were blocked by passing a solution of 1 M ethanolamine across the surface. The reference channel was activated/deactivated. For the capture setting, targets with an IgG Fc Tag at 0.25-2.5 μg/mL in HBS-EP+ buffer were captured by the anti-human IgG-Fc antibody at the chip surface for 180 s at a flow rate of 10 μL/min.
(§4) The binding assay was carried out with a contact time of 180 s, a dissociation time of 900-3600 s and a flow rate of 30 μL/min. All measurements were performed at 25° C. […] For the directly immobilized targets, the same regeneration conditions were used. Prior to the protein measurements, three startup cycles were performed for conditioning purposes. Data were evaluated with Biacore Evaluation software. Double referencing was used and the 1:1 binding model was used to fit the raw data.
(§5) The values determined for kon, koff and the resulting equilibrium dissociation constant (KD) for exemplary lipocalin muteins are summarized in Table 4.

| Molecule | Rat CTGF koff | Rat CTGF kon |
| --- | --- | --- |
| B1 | 4.08e-05 s⁻¹ | 88800 M⁻¹ s⁻¹ |

tested on: not listed separately; assay: Thermal stability assessment by nanoDSC; type: physicochemical; conditions: 1 mg/mL in PBS, scan 25-100° C. at 1° C./min
Method: To determine the melting temperatures (Tms) of the lipocalin muteins, which is a general indicator for folding stability, the CTGF specific muteins, at a protein concentration of 1 mg/mL in PBS (Gibco), were scanned (25-100° C.) at 1° C./min using a capillary nanoDSC instrument (CSC 6300, TA Instruments). […] Several unfolding events can contribute to the observed thermogram. In cases with multiple transitions, the one with the major unfolding energy best represents the overall protein fold and is reported. Muteins were produced as described in Example 3. SEQ ID NOs: 3, 7, 9, 25, and 29 were expressed using E. coli, the other muteins were expressed using CHO cells.
The resulting maximum melting temperatures as well as the onset temperature of melting for exemplary lipocalin muteins and fusion proteins are listed in Table 3 below.

| Molecule | ONSET MELTING |
| --- | --- |
| B1 | 50 °C |
| B2 | 55 °C |
| B3 | 49 °C |
| B4 | 59 °C |
| B5 | 55 °C |
| B6 | 62 °C |
| B7 | 52 °C |
| B8 | 62 °C |
| B9 | 49 °C |
| B10 | 57 °C |

same assay, conditions: 1 mg/mL in PBS, scan 25-100° C. at 1° C./min, major transition

| Molecule | TM |
| --- | --- |
| B1 | 66 °C |
| B2 | 65 °C |
| B3 | 65 °C |
| B4 | 73 °C |
| B5 | 65 °C |
| B6 | 71 °C |
| B7 | 64 °C |
| B8 | 79 °C |
| B9 | 75 °C |
| B10 | 68 °C |

molecular target: T3, human CTGF (Homo sapiens, UniProt P29279, H83D); assay: SPR binding kinetics and affinity, human CTGF; conditions: 25° C., 1:1 binding model
T3 construct: purchased Creative Biomart
T3 sequence (P29279 with tags, fused parts or gaps H83D): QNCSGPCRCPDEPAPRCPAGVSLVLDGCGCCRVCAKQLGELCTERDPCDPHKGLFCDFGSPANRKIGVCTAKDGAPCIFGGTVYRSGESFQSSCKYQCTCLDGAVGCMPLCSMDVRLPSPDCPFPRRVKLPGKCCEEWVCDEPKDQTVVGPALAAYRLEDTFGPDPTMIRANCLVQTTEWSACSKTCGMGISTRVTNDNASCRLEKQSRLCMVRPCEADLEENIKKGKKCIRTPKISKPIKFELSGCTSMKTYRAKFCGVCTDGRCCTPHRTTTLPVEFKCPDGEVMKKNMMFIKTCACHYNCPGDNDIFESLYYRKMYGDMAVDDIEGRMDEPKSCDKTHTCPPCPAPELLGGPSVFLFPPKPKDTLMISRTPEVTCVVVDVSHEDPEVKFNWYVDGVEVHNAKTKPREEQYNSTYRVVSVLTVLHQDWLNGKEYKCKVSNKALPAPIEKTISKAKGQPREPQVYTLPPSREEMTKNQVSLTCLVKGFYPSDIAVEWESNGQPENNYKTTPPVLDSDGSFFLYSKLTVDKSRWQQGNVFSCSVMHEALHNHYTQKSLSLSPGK
Method: as §1, §2, §3, §4

| Molecule | human CTGF kon |
| --- | --- |
| B1 | 67700 M⁻¹ s⁻¹ |
| B2 | 127000 M⁻¹ s⁻¹ |
| B3 | 56600 M⁻¹ s⁻¹ |
| B4 | 92300 M⁻¹ s⁻¹ |
| B5 | 50400 M⁻¹ s⁻¹ |
| B6 | 23200 M⁻¹ s⁻¹ |
| B7 | 30500 M⁻¹ s⁻¹ |
| B8 | 109000 M⁻¹ s⁻¹ |
| B9 | 45400 M⁻¹ s⁻¹ |
| B10 | 102000 M⁻¹ s⁻¹ |

molecular target: T4, human CTGF (Homo sapiens, UniProt P29279); assay: SPR binding kinetics and affinity, human CTGF; conditions: 25° C., 1:1 binding model
T4 construct: purchased Creative Biomart
T4 sequence (P29279 with tags, fused parts or gaps H83D): as above
Method: as §1, §2, §3, §4

| Molecule | human CTGF koff |
| --- | --- |
| B1 | 2.23e-06 s⁻¹ |
| B2 | 6.63e-05 s⁻¹ |
| B3 | 5.2e-05 s⁻¹ |
| B4 | 7.02e-05 s⁻¹ |
| B5 | 2.61e-05 s⁻¹ |
| B6 | 3.06e-05 s⁻¹ |
| B7 | 2.45e-05 s⁻¹ |
| B8 | 6.39e-05 s⁻¹ |
| B9 | 0.000114 s⁻¹ |
| B10 | 5.34e-05 s⁻¹ |

molecular target: T2, Murine CTGF; assay: SPR binding kinetics and affinity, murine CTGF; design: key to Murine CTGF kon / Murine CTGF koff / Murine CTGF KD: B binding without determination of kinetics constants; conditions: 25° C., 1:1 binding model
Method: as §1, §2, §3, §4, §5

| Molecule | Murine CTGF KD | Murine CTGF koff | Murine CTGF kon |
| --- | --- | --- | --- |
| B1 | B | B | B |
| B2 |  | 3.94e-05 s⁻¹ | 228000 M⁻¹ s⁻¹ |
| B3 |  | 2.54e-05 s⁻¹ | 93200 M⁻¹ s⁻¹ |
| B4 |  | 6.34e-05 s⁻¹ | 161000 M⁻¹ s⁻¹ |
| B5 |  | 8.23e-05 s⁻¹ | 60700 M⁻¹ s⁻¹ |
| B6 |  | 0.000208 s⁻¹ | 35300 M⁻¹ s⁻¹ |
| B7 |  | 0.000172 s⁻¹ | 41400 M⁻¹ s⁻¹ |
| B8 |  | 0.000264 s⁻¹ | 133000 M⁻¹ s⁻¹ |
| B9 |  | 0.000131 s⁻¹ | 72000 M⁻¹ s⁻¹ |
| B10 |  | 7.03e-05 s⁻¹ | 190000 M⁻¹ s⁻¹ |
